Consider six molecules from US20250171536A1 (CSL INNOVATION, published 2025).

The target in test [1] is T1, Human CD117 (c-kit), cell-surface expressed (human, UniProt P10721 26-976).
T1 construct: also called hCD117; SCFR
As to the kind of experiment: flow cytometry on HEK293FS cells expressing human CD117, IgG1 format, signal of parental cells subtracted. (Flow cytometry measures light scatter and fluorescence of single cells or particles in a stream.)
Procedure: (§1) After a one hour incubation on ice, cells were washed once prior to fixation.
(§2) Mean fluorescence intensities (MFI) were obtained using Flowjo v10 and analysed using GraphPad Prism. Total binding curves for TF-1 cells and specific binding curves for HEK293FS expressing CD117 (generated by subtracting non-specific binding to parental cells) were plotted. EC50 values for each anti-CD117-IgG1 antibody tested was determined using a non-linear regression model.

In test [2] the target is T2, Cynomolgus monkey CD117, expressed on HEK293FS cells (cynomolgus monkey, UniProt P10721 26-976 (human entry)).
T2 construct: The construct transfected is not further described; also called cyno CD117
T2 chain: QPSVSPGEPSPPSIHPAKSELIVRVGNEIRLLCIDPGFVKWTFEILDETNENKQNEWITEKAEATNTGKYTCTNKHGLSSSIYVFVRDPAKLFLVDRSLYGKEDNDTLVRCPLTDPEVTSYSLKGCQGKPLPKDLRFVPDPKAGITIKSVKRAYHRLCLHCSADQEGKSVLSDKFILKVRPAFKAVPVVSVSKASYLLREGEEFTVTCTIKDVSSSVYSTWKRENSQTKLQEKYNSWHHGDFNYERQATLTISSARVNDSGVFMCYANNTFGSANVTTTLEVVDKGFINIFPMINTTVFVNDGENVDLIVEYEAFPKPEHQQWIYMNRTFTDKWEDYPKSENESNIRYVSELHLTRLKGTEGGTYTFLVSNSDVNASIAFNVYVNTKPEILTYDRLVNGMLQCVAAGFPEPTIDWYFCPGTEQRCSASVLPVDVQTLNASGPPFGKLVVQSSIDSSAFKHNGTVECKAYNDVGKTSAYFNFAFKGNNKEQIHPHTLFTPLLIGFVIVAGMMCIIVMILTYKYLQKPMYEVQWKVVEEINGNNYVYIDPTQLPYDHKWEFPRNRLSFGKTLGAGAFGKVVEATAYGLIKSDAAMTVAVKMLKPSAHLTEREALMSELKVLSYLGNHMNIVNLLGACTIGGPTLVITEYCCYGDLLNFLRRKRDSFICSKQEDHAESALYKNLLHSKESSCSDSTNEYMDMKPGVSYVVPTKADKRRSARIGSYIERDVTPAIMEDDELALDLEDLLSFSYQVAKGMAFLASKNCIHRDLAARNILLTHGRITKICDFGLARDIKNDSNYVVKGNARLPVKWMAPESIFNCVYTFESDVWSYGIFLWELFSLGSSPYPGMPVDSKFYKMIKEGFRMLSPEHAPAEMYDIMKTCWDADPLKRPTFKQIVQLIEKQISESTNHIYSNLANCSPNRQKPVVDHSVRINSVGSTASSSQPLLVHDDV
As to the kind of experiment: flow cytometry on HEK293FS cells expressing cynomolgus CD117, IgG1 format, signal of parental cells subtracted.
Procedure: as §1, §2

In test [3] the target is T3, Full length human CD117, soluble (HuCD117 1-524) (human, UniProt P10721 26-524).
T3 construct: also called full-length protein
T3 sequence (P10721 26-524): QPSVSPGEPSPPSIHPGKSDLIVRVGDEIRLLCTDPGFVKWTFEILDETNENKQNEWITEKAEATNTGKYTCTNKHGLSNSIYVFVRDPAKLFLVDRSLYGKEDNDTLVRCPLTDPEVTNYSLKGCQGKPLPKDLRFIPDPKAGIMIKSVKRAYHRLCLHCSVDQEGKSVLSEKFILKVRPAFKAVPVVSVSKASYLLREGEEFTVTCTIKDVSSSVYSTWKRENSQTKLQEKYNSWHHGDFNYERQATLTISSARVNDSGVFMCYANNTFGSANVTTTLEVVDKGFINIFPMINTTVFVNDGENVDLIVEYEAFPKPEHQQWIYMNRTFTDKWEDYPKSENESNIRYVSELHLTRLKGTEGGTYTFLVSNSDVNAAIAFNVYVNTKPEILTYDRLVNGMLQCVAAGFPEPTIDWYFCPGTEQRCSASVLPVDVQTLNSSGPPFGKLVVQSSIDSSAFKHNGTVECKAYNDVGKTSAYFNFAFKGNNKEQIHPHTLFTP
Briefly: SPR Biacore 4000, captured antibody, soluble CD117 analyte, 1:1 fit.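 Note: antibodies captured on CM5 chips via goat anti-human IgG or IgA, CD117 analyte in two-fold series 0.8–200 nM, run at pH 7.3 and 37 °C, double-referenced sensorgrams.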 On the technique in general: SPR reads the build-up and loss of mass on a sensor chip optically.
Procedure: (§3) Biacore 4000 was used for all binding analyses. Experiments were performed at pH 7.3, 37° C. and under flow rate of 30 μL/min. Human anti-CD117 antibodies were surface captured using either polyclonal goat anti-human IgG or IgA antibodies directly immobilised onto the carboxymethyl dextran surface of CM5 sensorchips to approximately 13,000 RU using standard NHS/EDC chemistry at pH 5. The immobilised antibody surface was pre-conditioned with ten injections of human polyclonal IgG (Privigen 60s, 10 μg/mL) each followed by a regeneration cycle with 100 mM H3PO4.
(§4) A total of 18 anti-CD117 antibodies (2 μg/mL) were tested as captured ligands against four soluble mammalian CD117 receptor variants: the N-terminal domain of human CD117 (HuCD1₁₇₁₋₃₀₈), full length human CD117 (HuCD1₁₇₁₋₅₂₄), cyno CD117 (cynoCD117₁₋₅₂₀), and murine CD117 (MuCD117₁₋₅₂₇).
(§5) CD117 proteins were prepared in two-fold dilutions ranging from 0.8 to 200 nM. Anti-CD117 antibodies huAb249, huAb85, huCK6 and huhzSR1 were used as positive controls. BM4 was prepared in an IgG and IgA2 format and used as negative control. Binding affinities were calculated from sensorgrams double-referenced using reference surface and blank buffer injection data gathered within each experiment.

In test [4] the target is N-terminal domain of human CD117, soluble (HuCD117 1-308) (human, UniProt P10721 26-308). The description is as above.
Chain of N-terminal domain of human CD117, soluble (HuCD117 1-308) (P10721 26-308): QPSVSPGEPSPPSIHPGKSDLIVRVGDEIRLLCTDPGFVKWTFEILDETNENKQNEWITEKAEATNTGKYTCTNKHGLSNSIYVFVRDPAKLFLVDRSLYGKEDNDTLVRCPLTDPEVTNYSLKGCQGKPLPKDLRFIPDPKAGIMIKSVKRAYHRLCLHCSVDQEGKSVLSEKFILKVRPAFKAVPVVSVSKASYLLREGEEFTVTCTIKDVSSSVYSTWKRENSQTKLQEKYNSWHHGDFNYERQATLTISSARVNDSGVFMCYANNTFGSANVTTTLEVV
Procedure: as §3, §4, §5
Test [5] has as its target T4, Cyno CD117, soluble (cynoCD117 1-520) (cynomolgus monkey, UniProt P10721 26-520 (human entry)).
T4 construct: Residues as printed
T4 chain: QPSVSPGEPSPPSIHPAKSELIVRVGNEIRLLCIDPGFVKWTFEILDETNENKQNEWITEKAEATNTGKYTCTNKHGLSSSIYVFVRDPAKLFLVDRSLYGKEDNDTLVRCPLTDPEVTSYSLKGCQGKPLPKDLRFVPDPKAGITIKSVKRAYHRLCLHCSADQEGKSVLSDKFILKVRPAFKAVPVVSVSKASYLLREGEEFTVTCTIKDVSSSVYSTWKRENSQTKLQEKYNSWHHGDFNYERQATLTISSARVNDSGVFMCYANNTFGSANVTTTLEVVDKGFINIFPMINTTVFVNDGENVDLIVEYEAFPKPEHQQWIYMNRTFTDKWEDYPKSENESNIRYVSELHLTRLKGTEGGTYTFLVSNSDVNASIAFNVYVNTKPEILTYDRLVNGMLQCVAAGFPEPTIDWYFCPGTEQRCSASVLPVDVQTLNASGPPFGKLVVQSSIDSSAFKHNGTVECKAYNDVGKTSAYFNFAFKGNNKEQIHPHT
The description is as above.
Procedure: as §3, §4, §5

Test [6] deals with T1, Human CD117 (c-kit), cell-surface …. Briefly: flow cytometry on TF-1 cells, IgG1 format, anti-human IgG Fab-AF488, total binding.
Procedure: as §1, §2
Test [7] deals with T3, Full length human CD117, soluble …. As to the kind of experiment: SPR Biacore 4000, captured antibody, soluble CD117 analyte.
Procedure: as §3, §4, §5
The target of test [8] is T4, Cyno CD117, soluble (cynoCD117 1-520). Described as above.
Procedure: as §3, §4, §5
The target in test [9] is T5, Murine CD117, soluble (MuCD117 1-527) (mouse, UniProt P05532 25-527).
T5 construct: Residues as printed
T5 sequence: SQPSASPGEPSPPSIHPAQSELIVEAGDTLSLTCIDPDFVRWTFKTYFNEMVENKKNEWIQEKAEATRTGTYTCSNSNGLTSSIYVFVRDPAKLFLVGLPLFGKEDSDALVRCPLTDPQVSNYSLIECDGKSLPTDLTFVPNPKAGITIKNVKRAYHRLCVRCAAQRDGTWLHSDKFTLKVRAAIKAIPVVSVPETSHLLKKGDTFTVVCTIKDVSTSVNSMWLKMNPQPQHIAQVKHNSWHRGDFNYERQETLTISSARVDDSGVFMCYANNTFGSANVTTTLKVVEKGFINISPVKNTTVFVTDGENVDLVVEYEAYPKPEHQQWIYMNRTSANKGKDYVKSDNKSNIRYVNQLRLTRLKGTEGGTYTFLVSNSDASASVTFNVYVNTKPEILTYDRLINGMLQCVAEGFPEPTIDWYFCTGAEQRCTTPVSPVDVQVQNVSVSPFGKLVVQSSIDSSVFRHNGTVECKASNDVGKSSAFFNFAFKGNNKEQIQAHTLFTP
Described as above.
Procedure: as §3, §4, §5

Test [10] concerns the target T6, Mouse CD117, expressed on HEK293FS cells (mouse, UniProt P05532 25-979).
T6 construct: The construct transfected is not further described; also called murine CD117
Briefly: flow cytometry on HEK293FS cells expressing mouse CD117, IgG1 format, signal of parental cells subtracted.
Procedure: as §1, §2

In test [11] the target is T5, Murine CD117, soluble (MuCD117 1-527). As to the kind of experiment: SPR, captured antibody, soluble CD117 analyte.
Procedure: as §3, §4, §5
In test [12] the target is T2, Cynomolgus monkey CD117, expressed on …. As to the kind of experiment: flow cytometry on HEK293FS cells expressing cynomolgus CD117, IgG1 format, signal of parental cells subtracted [F].
Procedure: as §1, §2

B1: hu4A2 IgG1 (hu4A2-hKG1) (antibody)
heavy: not shown
light: EIVLTQSPGTLSLSPGKRATLSCRASQSVSNSYLAWYQQKPGQPPKLLIYWASTRESGVPDRFSGSGSGTDFTLTISSLQAEDVAVYYCQQYYSTPLTFGGGTKVEIKRTVAAPSVFIFPPSDEQLKSGTASVVCLLNNFYPREAKVQWKVDNALQSGNSQESVTEQDSKDSTYSLSSTLTLSKADYEKHKVYACEVTHQGLSSPVTKSFNRGEC
notes: Human IgG1, kappa; also called hu4Aa
Broadly, the EC50 (read off the curve) is the concentration at which the effect is half-maximal. By Kd is commonly meant the constant that tells how readily two partners part at equilibrium. As to B1, the figures for the “EC50 (read off the curve)” value in test [1], in [2] and in test [6] were around 0.5 nM, around 0.3 nM and around 0.2 nM, respectively. Further, the values for the Kd in test [3], in test [4] and in [5] were 32.4 nM, 14.4 nM and 34.6 nM, respectively.

B2: hu4A2 IgA2 (hu4A2-hKhA2 (P221R)) (antibody)
heavy: EVQLLESGGGLVQPGGSLRLSCAASGFTFSDYGMSWVRQAPGKGLEWVSAIGYGGGGKYYADSVKGRFTISRDNSKNTLYLQMNSLRAEDTAVYYCAKDTWWLAGLFDYWGQGTLVTVSSASPTSPKVFPLSLDSTPQDGNVVVACLVQGFFPQEPLSVTWSESGQNVTARNFPPSQDASGDLYTTSSQLTLPATQCPDGKSVTCHVKHYTNSSQDVTVPCRVPPPPPCCHPRLSLHRPALEDLLLGSEANLTCTLTGLRDASGATFTWTPSSGKSAVQGPPERDLCGCYSVSSVLPGCAQPWNHGETFTCTAAHPELKTPLTANITKSGNTFRPEVHLLPPPSEELALNELVTLTCLARGFSPKDVLVRWLQGSQELPREKYLTWASRQEPSQGTTTFAVTSILRVAAEDWKKGDTFSCMVGHEALPLAFTQKTIDRLAGKPTHVNVSVVMAEVDGTCY
light: B1 light
For B2, the figures for the “fold gain in affinity (IgA2 backbone vs IgG1 or IgG4)” value in test [7] and in test [8] were around 2 fold and around 10 fold, respectively. In addition, the results for the Kd in test [3], in test [4] and in test [5] were 18.6 nM, 8.61 nM and 3 nM, respectively.

B3: hu3B2 IgG1 (hu3B2-hLG1) (antibody)
heavy: not shown
light: SYELTQPPSVSVSPGQTATITCSGDKLGETYVHWYQHQSGQSPILVVYQDFKRPSGIPERFSGSNSGNTATLTISGTQAMDEADYYCQAWDSSTAVFGGGTKLTVLGQPKAAPSVTLFPPSSEELQANKATLVCLISDFYPGAVTVAWKADGSPVKAGVETTKPSKQSNNKYAASSYLSLTPEQWKSHRSYSCQVTHEGSTVEKTVAPTECS
notes: Human IgG1, lambda
In the case of B3, the Kd in test [9] is above 1000 nM; in test [3] it was 54.6 nM; in test [5], 58.7 nM. In test [10], the “EC50 (read off the curve)” value was around 0.3 nM.

B4: hu3B2 IgA2 (hu3B2-hLhA2 (P221R)) (antibody)
heavy: QVQLQESGPGLVKPSETLSLTCTVSGYSISSGYYWGWIRQPPGKGLEWIGSIYHSGSTYYNPSLKSRVTISVDTSKNQFSLKLSSVTAADTAVYYCARVGVRYFDWLLYGAFDIWGQGTMVTVSSASPTSPKVFPLSLDSTPQDGNVVVACLVQGFFPQEPLSVTWSESGQNVTARNFPPSQDASGDLYTTSSQLTLPATQCPDGKSVTCHVKHYTNSSQDVTVPCRVPPPPPCCHPRLSLHRPALEDLLLGSEANLTCTLTGLRDASGATFTWTPSSGKSAVQGPPERDLCGCYSVSSVLPGCAQPWNHGETFTCTAAHPELKTPLTANITKSGNTFRPEVHLLPPPSEELALNELVTLTCLARGFSPKDVLVRWLQGSQELPREKYLTWASRQEPSQGTTTFAVTSILRVAAEDWKKGDTFSCMVGHEALPLAFTQKTIDRLAGKPTHVNVSVVMAEVDGTCY
light: B3 light
Consider B4, for which the values for the Kd in test [9], in test [3] and in test [5] were above 1000 nM, 35.9 nM and 39.9 nM, respectively.

B5: hu3C2 IgG1 (hu3C2-hLG1) (antibody)
heavy: not shown
light: SYELTQDPAVSVALGQTVRITCQGDSLRDYYANWFQQKPGQAPLLVIFYDSDRPSGIPERFSGSNSGNTATLTISRVEAGDEADYYCQAWDSSSDHWVFGGGTKLTVLGQPKAAPSVTLFPPSSEELQANKATLVCLISDFYPGAVTVAWKADGSPVKAGVETTKPSKQSNNKYAASSYLSLTPEQWKSHRSYSCQVTHEGSTVEKTVAPTECS
notes: Human IgG1, lambda
Consider B5, for which the binding result in test [11] was “no binding (tested: 200 nM (highest CD117 concentration))”. Further, the figures for the “EC50 (read off the curve)” value in [1], in test [2] and in test [6] were around 0.4 nM, around 0.3 nM and around 0.2 nM, respectively. For the same molecule, the Kd in test [3] came to 14.4 nM; in test [4] it was 4.14 nM; in test [5], 33.7 nM.

B6: hu3B3 IgG1 (hu3B3-hLG1) (antibody)
heavy: not shown
light: SYELTQPPSVSVSPGQTASITCSGDKVGAKYVFWYQQKPGQSPVLVVYQDNKRPSGIPERFSGSNSGNTATLTISGTQAMDEADYYCQAWDSSTALYVFGTGTKVTVLGQPKANPTVTLFPPSSEELQANKATLVCLISDFYPGAVTVAWKADGSPVKAGVETTKPSKQSNNKYAASSYLSLTPEQWKSHRSYSCQVTHEGSTVEKTVAPTECS
notes: Human IgG1, lambda
As to B6, the binding result in test [11] is on record as “no binding (tested: 200 nM (highest CD117 concentration))”; in [12], “binds”. For the same molecule, the figures for the Kd in test [3], in test [4] and in test [5] were 4.2 nM, 1.07 nM and 5.7 nM, respectively. Further, the concentration giving a half-maximal response (EC50 (read off the curve)) in [6] is around 0.04 nM.
